Assay results published in patent publication US20060140970A1, “Proteic binding partners of TCTP and methods of modulating tumor reversion or cell apoptosis” (priority 2003, published 2006).
Like-named read-outs stand apart in the source and are kept apart here.

Columns and labels:
Arf1-GAP / [D17]ARF1 = Arf1-GAP / [D17]ARF1 (Homo sapiens, UniProt P84077); assay: GTP-GDP exchange activity of Arf1-GAP on [D17]ARF1, tryptophan fluorescence; assay type: biochemical; settings: 30 uM TCTP, 0.5 uM [D17]ARF1-GDP, 100 uM Arf-GAP; presence vs absence of TCTP
Procedure: Into a buffer containing 1 mM free Mg^2+, 30 uM TCTP and 0.5 uM [D17]ARF1 -GDP were added. The reaction was initiated by the addition of 40 uM GTP and 2 mM EDTA. To stop the reaction, 2 mM MgCl2 was added. The Arf-GAP, at a concentration of 100 uM, was added. The reaction was measured in presence and absence of TCTP. […] In particular, it is shown that TCTP inhibits the GTP-GDP exchange catalyzed by Arf1-GAP, implicating that Arf1 is kept in its active conformation in presence of TCTP.

bovine brain tubulin = assay: In vitro tubulin polymerization assay (absorbance at 340 nm); assay type: biochemical; settings: 3 μg purified protein, 2 mg/ml tubulin, 32° C.
Procedure: In vitro tubulin polymerization assays. Pure bovine brain tubulin protein was reconstituted at a final concentration of 10 mg/ml in cold G-PEM buffer (80 mM Piperazine-N,N′-bis-[2-ethanesulfonic acid] equisodium salt (PIPES), 0.5 mM magnesium chloride (MgCl2), 1 mM ethylene glycol-bis-(b-amino-ethyl ether)-N,N,N′,N′-tetra-acetic acid (EGTA), 1 mM Guanosine 5′-triphosphate (GTP), pH 6.9). Samples of 2 mg/ml tubulin in G-PEM buffer were incubated either with 3 μg of ovalbumin (negative control), with 3 μg of purified recombinant TCTP protein, or with […] of purified recombinant OP18 protein. Then, the samples were placed in quartz cuvettes and incubated at 32° C. Tubulin polymerization was observed by measuring the absorbance of the solution at 340 nm over time.
Since TCTP exerts tubulin and microtubules binding properties (Gachet et al., J. Cell Sci., 1 12(Pt 8): 1257-1271 (1999)), whether TCTP could directly regulate the microtubule dynamics was investigated. An in vitro tubulin polymerization assay, using purified tubulin, was developed. […] In the presence of 3 μg of purified OP18 from E. Coil, the polymerization of tubulin was abolished.

eEF1A = biological target: T1, eEF1A (Oryctolagus cuniculus, UniProt P68105); assay: Guanine nucleotide exchange assay on eEF1A (eEF1A-[3H]GDP dissociation); assay type: biochemical, rabbit
T1 construct: Rabbit liver eEF1A was purified as described in Shalak et al; from tissue; host or cells: rabbit liver
T1 sequence (P68105 1-462): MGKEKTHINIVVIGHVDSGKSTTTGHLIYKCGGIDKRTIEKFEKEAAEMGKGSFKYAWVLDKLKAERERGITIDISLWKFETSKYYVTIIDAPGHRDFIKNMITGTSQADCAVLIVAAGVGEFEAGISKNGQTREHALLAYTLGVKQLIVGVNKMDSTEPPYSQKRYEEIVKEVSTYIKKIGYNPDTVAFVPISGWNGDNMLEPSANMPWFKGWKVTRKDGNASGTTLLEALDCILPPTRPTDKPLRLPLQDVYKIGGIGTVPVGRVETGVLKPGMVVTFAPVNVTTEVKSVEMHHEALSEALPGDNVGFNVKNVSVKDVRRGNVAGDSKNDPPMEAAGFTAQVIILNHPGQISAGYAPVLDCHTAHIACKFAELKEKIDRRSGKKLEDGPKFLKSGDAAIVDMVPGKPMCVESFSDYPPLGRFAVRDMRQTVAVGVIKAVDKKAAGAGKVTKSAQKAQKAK
Procedure: (§1) Guanine nucleotide exchange assay. Rabbit liver eEF1A was purified as described in Shalak et al., Ukr Biokhim Zh, 69: 104-9 (1997), incorporated herein by reference. The guanine nucleotide exchange on eEF1A was monitored as described in Negrutskii et al., J Biol Chem, 274: 4545-50 (1999) and Bec et al., J Biol Chem, 269: 2086-92 (1994), both of which are incorporated herein by reference. The eEF1A-[^3H]GDP complex was prepared following incubation of 4 μM eEF1A with 4 μM [^3H]GDP (Amersham Biosciences; 1500 Ci/mol) in 80 μl of 45 mM Tris-HCl (pH 7.5) containing 0.5 mM DTT, 10 mM magnesium acetate, 100 mM NH4Cl, 1 mg/ml bovine serum albumin and 25% glycerol for 5 minutes at 37° C. The reaction mixture was placed on ice and diluted by addition of 640 μl of ice-cold exchange buffer [20 mM Tris-HCl (pH 7.5), 10 mM magnesium acetate, 50 mM NH4Cl, 10% glycerol]. The exchange reaction was conducted at 0° C. after addition of 160 μl of exchange buffer containing nucleotide and specified exchange factors. Aliquots of 100 μl were taken at times indicated and immediately filtered through nitrocellulose filters (Millipore; pore size 0.45 μm). Filters were washed 3 times with 1 ml of ice-cold washing buffer [20 mM Tris-HCl (pH 7.5), 10 mM magnesium acetate, 100 mM NH4Cl, 0.1 mg/ml bovine serum albumin], dried and counted in a liquid scintillator.
The functional relevance of a TCTP and eEF1A association was further investigated by monitoring the effects of TCTP on the rate of dissociation of GDP from the eEF1A-[^3H]-GDP complex. Whether TCTP preferentially binds to the GDP-bound form of the factor (and pushes the equilibrium toward the formation of eEF1A-GDP) or associates with the nucleotide free form of eEF1A (and displaces the exchange reaction toward the formation of eEF1A) was determined.
This corresponded to a rate of 0.082±0.004 pmol GDP exchanged/min/pmol of eEF1A. In the absence of free GDP in the incubation mixture, the eEF1A-[^3H]-GDP complex remained stable over a period of 40 minutes. Increasing amounts of TCTP (0.2 μM to 3.0 μM) were added in the exchange assay and the rate of dissociation of the eEF1A-[^3H]-GDP complex was monitored in the presence of 150 μM free GDP (FIG. 15A).

[1] = biological target: T2, eEF1A (eEF1Bαγ-mediated GDP exchange) (Oryctolagus cuniculus, UniProt P68105); assay: eEF1Bαγ-mediated GDP exchange on eEF1A; assay type: biochemical, rabbit; settings: TCTP at a final concentration of 2 μM
T2 construct: Rabbit liver eEF1A was purified as described in Shalak et al; from tissue; host or cells: rabbit liver (eEF1A only)
T2 sequence (P68105 2-462 limits assumed): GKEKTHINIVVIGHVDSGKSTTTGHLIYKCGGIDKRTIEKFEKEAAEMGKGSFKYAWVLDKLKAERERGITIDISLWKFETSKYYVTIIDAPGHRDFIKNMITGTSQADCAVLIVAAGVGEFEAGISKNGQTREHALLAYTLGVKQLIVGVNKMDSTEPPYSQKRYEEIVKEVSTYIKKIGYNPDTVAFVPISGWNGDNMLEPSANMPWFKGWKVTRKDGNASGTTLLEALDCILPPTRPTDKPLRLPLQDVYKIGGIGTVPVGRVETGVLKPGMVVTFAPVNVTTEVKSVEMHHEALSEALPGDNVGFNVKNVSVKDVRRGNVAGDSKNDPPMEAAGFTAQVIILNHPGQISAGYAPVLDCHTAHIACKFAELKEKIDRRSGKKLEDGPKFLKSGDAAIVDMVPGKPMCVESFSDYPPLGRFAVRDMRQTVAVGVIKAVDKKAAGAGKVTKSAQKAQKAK
Procedure: as §1, with “scintillator. […]” for “scintillator.”

[2] = biological target: T3, eEF1A (eEF1Bβ-mediated GDP exchange) (Oryctolagus cuniculus, UniProt P68105); assay: eEF1Bβ-mediated GDP exchange on eEF1A; assay type: biochemical, rabbit; settings: TCTP at a final concentration of 2 μM; simple first-order
T3 construct: Rabbit liver eEF1A was purified as described in Shalak et al; Full-length TCTP, eEF1Bβ and NKTR cDNAs were cloned in-frame into pGEX-6P; GST (N, cleaved yes); made in house; host or cells: eEF1Bβ: E. coli BL21DE3; eEF1A: purified from rabbit liver
T3 sequence (P68105 2-462 limits assumed): T2 sequence (P68105 2-462 limits assumed)
Procedure: as §1, with “scintillator. […]” for “scintillator.”

GTP-GDP exchange catalyzed by Arf1-GAP (Arf1-GAP / [D17]ARF1): inhibits
guanine nucleotide exchange activity (eEF1A): devoid of exchange activity
Kd (eEF1A; 150 μM free GDP, TCTP 0.2 μM to 3.0 μM, saturation kinetics, read-out: apparent dissociation constant Kd (inhibition of GDP exchange on eEF1A)): 1200 ± 200 nM
binding of nucleotides by the protein itself (eEF1A; TCTP by itself): did not bind nucleotides
Kd (eEF1A; unlabeled free GTP (150 μM) in the exchange reaction, read-out: apparent Kd of TCTP for the GDP form of eEF1A): 1600 ± 300 nM
Substance: TCTP: purified recombinant TCTP protein, bacterially expressed, GST moiety removed
polymerization of purified tubulin (bovine brain tubulin): did not appear to affect the polymerization rate
rate of GDP dissociation (eEF1A; 3 μM TCTP, 150 μM free GDP): 0.026±0.003 pmol GDP exchanged/min/pmol of eEF1A
rate of GDP dissociation (eEF1A; with TCTP, unlabeled free GTP (150 μM) instead of GDP): 0.024±0.003 pmol GDP exchanged/min/pmol of eEF1A
initial rate of GDP exchange in the presence of eEF1Bαγ [1]: 0.96 min⁻¹
initial rate of GDP exchange in the presence of eEF1Bβ [2]: 0.294 min^−1 per pmol of eEF1Bβ
